Patent US20210230273A1 (Alexion, published 2021)

B1: TPP-101 (Fab, V domains shown)
VH: QVQLQQSGSELKKPGASVKISCKASGYSFTDYIILWVRQNPGKGLEWIGHIDPYYGSSNYNLKFKGRVTITADQSTTTAYMELSSLRSEDTAVYYCGRSKRDYFDYWGQGTTLTVSS
VL: DIQMTQSPSSLSASIGDRVTITCKASQDINSYLSWFQQKPGKAPKLLIYRANRLVDGVPSRFSGSGSGTDYTLTISSLQPEDFAVYYCLQYDEFPYTFGGGTKLEIK
B2: TPP-100 (Fab, V domains shown)
VH: EVQLQQSGPELVKPGASLKMSCKASGYSFTDYIILWVKQNHGKSLEWIGHIDPYYGSSNYNLKFKGKATLTVDKSSSTAYMQLNSLTSEDSAVYYCGRSKRDYFDYWGQGTTLTVSS
VL: DIQMTQSPSSMYASLGERVTITCKASQDINSYLSWFQQKPGKSPKTLIYRANRLVDGVPSRFSGSGSGQDYSLTISSLEYEDMGIYYCLQYDEFPYTFGGGTKLEIK
B3: TPP-103 (Fab, V domains shown)
VH: QVQLVQSGAEVKKPGASVKVSCKASGYSFTDYIILWVRQAPGQGLEWMGHIDPYYGSSNYNLKFKGRVTMTRDTSTSTVYMELSSLRSEDTAVYYCARSKRDYFDYWGQGTLVTVSS
VL: DIQMTQSPSSLSASVGDRVTITCKASQDINSYLSWFQQKPGKAPKSLIYRANRLVDGVPSRFSGSGSGTDFTLTISSLQPEDFATYYCLQYDEFPYTFGQGTKLEIK
B4: TPP-107 (Fab, V domains shown)
VH: QVQLVQSGAEVKKPGSSVKVSCKASGYSFTDYIILWVRQAPGQGLEWMGHIDPYYGSSNYNLKFKGRVTITADESTSTAYMELSSLRSEDTAVYYCARSKRDYFDYWGQGTLVTVSS
VL: DIQMTQSPSSLSASVGDRVTITCKASQDINSYLSWFQQKPGKAPKSLIYRANRLVDGVPSRFSGSGSGTDFTLTISSLQPEDFATYYCLQYDEFPYTFGQGTKLEIK
B5: TPP-111 (Fab, V domains shown)
VH: QVQLVQSGAEVKKPGASVKVSCKASGYSFTDYIILWVRQAPGQGLEWMGHIDPYYGSSNYNLKFKGRVTMTTDTSTSTAYMELRSLRSDDTAVYYCARSKRDYFDYWGQGTLVTVSS
VL: DIQMTQSPSSLSASVGDRVTITCKASQDINSYLSWFQQKPGKAPKSLIYRANRLVDGVPSRFSGSGSGTDFTLTISSLQPEDFATYYCLQYDEFPYTFGQGTKLEIK
B6: TPP-115 (Fab, V domains shown)
VH: QVQLVQSGAEVKKPGASVKVSCKASGYSFTDYIILWVRQAPGQGLEWMGHIDPYYGSSNYNLKFKGRVTMTRDTSISTAYMELSRLRSDDTAVYYCARSKRDYFDYWGQGTLVTVSS
VL: DIQMTQSPSSLSASVGDRVTITCKASQDINSYLSWFQQKPGKAPKSLIYRANRLVDGVPSRFSGSGSGTDFTLTISSLQPEDFATYYCLQYDEFPYTFGQGTKLEIK
B7: TPP-123 (Fab, V domains shown)
VH: QVQLVQSGAEVKKPGASVKVSCKASGYSFTDYIILWVRQATGQGLEWMGHIDPYYGSSNYNLKFKGRVTMTRNTSISTAYMELSSLRSEDTAVYYCARSKRDYFDYWGQGTLVTVSS
VL: DIQMTQSPSSLSASVGDRVTITCKASQDINSYLSWFQQKPGKAPKSLIYRANRLVDGVPSRFSGSGSGTDFTLTISSLQPEDFATYYCLQYDEFPYTFGQGTKLEIK
B8: TPP-131 (Fab, V domains shown)
VH: QMQLVQSGAEVKKTGSSVKVSCKASGYSFTDYIILWVRQAPGQALEWMGHIDPYYGSSNYNLKFKGRVTITRDRSMSTAYMELSSLRSEDTAMYYCARSKRDYFDYWGQGTLVTVSS
VL: DIQMTQSPSSLSASVGDRVTITCKASQDINSYLSWFQQKPGKAPKSLIYRANRLVDGVPSRFSGSGSGTDFTLTISSLQPEDFATYYCLQYDEFPYTFGQGTKLEIK
B9: TPP-135 (Fab, V domains shown)
VH: QMQLVQSGPEVKKPGTSVKVSCKASGYSFTDYIILWVRQARGQRLEWIGHIDPYYGSSNYNLKFKGRVTITRDMSTSTAYMELSSLRSEDTAVYYCAASKRDYFDYWGQGTLVTVSS
VL: DIQMTQSPSSLSASVGDRVTITCKASQDINSYLSWFQQKPGKAPKSLIYRANRLVDGVPSRFSGSGSGTDFTLTISSLQPEDFATYYCLQYDEFPYTFGQGTKLEIK
B10: TPP-139 (Fab, V domains shown)
VH: QVQLVQSGSELKKPGASVKVSCKASGYSFTDYIILWVRQAPGQGLEWMGHIDPYYGSSNYNLKFKGRFVFSLDTSVSTAYLQISSLKAEDTAVYYCARSKRDYFDYWGQGTLVTVSS
VL: DIQMTQSPSSLSASVGDRVTITCKASQDINSYLSWFQQKPGKAPKSLIYRANRLVDGVPSRFSGSGSGTDFTLTISSLQPEDFATYYCLQYDEFPYTFGQGTKLEIK
B11: TPP-751 (Fab, V domains shown)
VH: QVQLVQSGAEVKKPGASVKVSCKASGYSFTDYIILWVRQAPGQRLEWMGHIDPYYGSSNYNLKFKGRVTITRDTSASTAYMELSSLRSEDTAVYYCGRSKRDYFDYWGQGTLVTVSS
VL: DIQMTQSPSSLSASVGDRVTITCKASQDINSYLSWFQQKPGKAPKSLIYRANRLVDGVPSRFSGSGSGTDFTLTISSLQPEDFATYYCLQYDEFPYTFGQGTKLEIK
B12: TPP-709 (Fab, V domains shown)
VH: QVQLVQSGAEVKKPGASVKVSCKASGYSFTDYIILWVRQAPGQRLEWMGHIDPYYGSSNYNLKFKGRVTITRDTSASTAYMELSSLRSEDTAVYYCGRSKRDYFDYWGQGTLVTVSS
VL: DIQMTQSPSSLSASVGDRVTITCKASQDINSYLSWFQQKPGKAPKSLIYRANRLVDGVPSRFSGSGSGTDFTLTISSLQPEDFGTYYCLQYDEFPYTFGQGTKLEIK
B13: TPP-741 (Fab, V domains shown)
VH: QVQLVQSGAEVKKPGASVKVSCKASGYSFTDYIILWVRQAPGQRLEWIGHIDPYYGSSNYNLKFKGRVTITRDTSASTAYMELSSLRSEDTAVYYCARSKRDYFDYWGQGTLVTVSS
VL: DIQMTQSPSSLSASVGDRVTITCKASQDINSYLSWFQQKPGKAPKSLIYRANRLVDGVPSRFSGSGSGTDFTLTISSLQPEDFATYYCLQYDEFPYTFGQGTKLEIK
B14: samalizumab (antibody, human IgG2, kappa, V domains shown)
VH: QVQLQQSGSELKKPGASVKISCKASGYSFTDYIILWVRQNPGKGLEWIGHIDPYYGSSNYNLKFKGRVTITADQSTTTAYMELSSLRSEDTAVYYCGRSKRDYFDYWGQGTTLTVSS
VL: DIQMTQSPSSLSASIGDRVTITCKASQDINSYLSWFQQKPGKAPKLLIYRANRLVDGVPSRFSGSGSGTDYTLTISSLQPEDFAVYYCLQYDEFPYTFGGGTKLEIKR
notes: Humanized anti-human CD200 mAb with G2/G4 constant region; also called ALXN6000; TPP-309

Biological target: recombinant human CD200 Fc Chimera (human) (UniProt P41217)
Assay: SPR (Biacore 3000), CD200-Fc captured by anti-human Fc on CM5, Fab injected, 1:1 Langmuir

Question: Which Kd does the source give for B1 here?
Answer: 5.53 nM

Question: What about the koff of the same binder?
Answer: 0.0148 s⁻¹

Question: And the kon?
Answer: 2.67e+06 M⁻¹ s⁻¹

Question: Which Kd does the source give for B2 here?
Answer: 0.488 nM

Question: What about the koff of the same binder?
Answer: 0.000739 s⁻¹

Question: What about the kon of the same binder?
Answer: 1.51e+06 M⁻¹ s⁻¹

Question: For B3, which Kd is on record?
Answer: 10.1 nM

Question: And the koff?
Answer: 0.00704 s⁻¹

Question: And the kon?
Answer: 694000 M⁻¹ s⁻¹

Question: How did the Kd turn out when B4 was run?
Answer: 4.64 nM

Question: What about the koff of the same binder?
Answer: 0.0041 s⁻¹

Question: What about the kon of the same binder?
Answer: 885000 M⁻¹ s⁻¹

Question: Which Kd does the source give for B5 here?
Answer: 5.08 nM

Question: What about the koff of the same binder?
Answer: 0.00625 s⁻¹

Question: And the kon?
Answer: 1.23e+06 M⁻¹ s⁻¹

Question: Which Kd does the source give for B6 here?
Answer: 4.04 nM

Question: And the koff?
Answer: 0.0053 s⁻¹

Question: What about the kon of the same binder?
Answer: 1.31e+06 M⁻¹ s⁻¹

Question: With B7 as the binder, how does the Kd read?
Answer: 4.36 nM

Question: And the koff?
Answer: 0.00487 s⁻¹

Question: And the kon?
Answer: 1.12e+06 M⁻¹ s⁻¹

Question: What does the source list for B8?
Answer: Kd: 0.887 nM; koff: 0.00235 s⁻¹; kon: 2.65e+06 M⁻¹ s⁻¹

Question: For B9, which Kd is on record?
Answer: 15.7 nM

Question: What about the koff of the same binder?
Answer: 0.0146 s⁻¹

Question: And the kon?
Answer: 930000 M⁻¹ s⁻¹

Question: B10 was tested. Which Kd did it give?
Answer: 3.71 nM

Question: And the koff?
Answer: 0.00368 s⁻¹

Question: What about the kon of the same binder?
Answer: 993000 M⁻¹ s⁻¹

Biological target: recombinant human CD200 Fc Chimera (human) (UniProt P41217)
Assay: SPR (Biacore), CD200 captured by anti-Fc (human) on CM5, Fab injected

Question: Which results are given for B1?
Answer: Kd: 6.01 nM; koff: 0.0175 s⁻¹; kon: 2.91e+06 M⁻¹ s⁻¹

Question: With B11 as the binder, how does the Kd read?
Answer: 0.104 nM

Question: What about the fold better affinity than mouse parental c2aB7 (TPP-100 Fab) of the same binder?
Answer: 3 fold

Question: And the fold better affinity than samalizumab (TPP-101 Fab)?
Answer: 45 fold

Question: What about the koff of the same binder?
Answer: 0.00022 s⁻¹

Question: What about the kon of the same binder?
Answer: 2.11e+06 M⁻¹ s⁻¹

Question: Which Kd does the source give for B2 here?
Answer: 0.442 nM

Question: What about the koff of the same binder?
Answer: 0.000747 s⁻¹

Question: And the kon?
Answer: 1.69e+06 M⁻¹ s⁻¹

Question: Which results are given for B12?
Answer: Kd: 0.132 nM; fold better affinity than mouse parental c2aB7 (TPP-100 Fab): 3 fold; fold better affinity than samalizumab (TPP-101 Fab): 45 fold; koff: 0.00024 s⁻¹; kon: 1.82e+06 M⁻¹ s⁻¹

Question: How did the Kd turn out when B13 was run?
Answer: 0.407 nM

Question: What about the koff of the same binder?
Answer: 0.000707 s⁻¹

Question: And the kon?
Answer: 1.74e+06 M⁻¹ s⁻¹

Biological target: T1, cell surface CD200 (human, UniProt P41217 31-278)
T1 construct: whole, on cells; also called CD200 on CD200 expressing Raji cells; CD200+ Raji cells
T1 sequence (looked up): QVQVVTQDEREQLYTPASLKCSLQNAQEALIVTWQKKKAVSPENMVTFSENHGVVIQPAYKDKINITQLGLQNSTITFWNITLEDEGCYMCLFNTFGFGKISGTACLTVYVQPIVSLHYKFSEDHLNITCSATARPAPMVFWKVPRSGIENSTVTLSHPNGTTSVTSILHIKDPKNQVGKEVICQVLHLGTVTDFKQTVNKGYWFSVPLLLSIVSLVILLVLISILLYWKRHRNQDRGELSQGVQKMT
Assay: flow cytometry, inhibition of labelled CD200R-Fc binding to CD200+ Raji cells; mean ± SD
Text: Next, the abilities of the newly-engineered anti-CD200 antibodies to antagonize CD200R were compared with that of samalizumab using CD200+ Raji cells. […] Binding of labeled CD200R-Fc was detected by flow cytometry.

Question: Which EC50 does the source give for B14 here?
Answer: 0.46 nM
